From IntAct's records for PubMed 31515488

B1: Lipopolysaccharide-induced tumor necrosis factor-alpha factor (Homo sapiens), Q99732 (parent)
chain: MSVPGPYQAATGPSSAPSAPPSYEETVAVNSYYPTPPAPMPGPTTGLVTGPDGKGMNPPSYYTQPAPIPNNNPITVQTVYVQHPITFLDRPIQMCCPSCNKMIVSQLSYNAGALTWLSCGSLCLLGCIAGCCFIPFCVDALQDVDHYCPNCRALLGTYKRL
B2: Dynein light chain 2, cytoplasmic (Homo sapiens), Q96FJ2 (parent)
chain: MSDRKAVIKNADMSEDMQQDAVDCATQAMEKYNIEKDIAAYIKKEFDKKYNPTWHCIVGRNFGSYVTHETKHFIYFYLGQVAILLFKSG
partner: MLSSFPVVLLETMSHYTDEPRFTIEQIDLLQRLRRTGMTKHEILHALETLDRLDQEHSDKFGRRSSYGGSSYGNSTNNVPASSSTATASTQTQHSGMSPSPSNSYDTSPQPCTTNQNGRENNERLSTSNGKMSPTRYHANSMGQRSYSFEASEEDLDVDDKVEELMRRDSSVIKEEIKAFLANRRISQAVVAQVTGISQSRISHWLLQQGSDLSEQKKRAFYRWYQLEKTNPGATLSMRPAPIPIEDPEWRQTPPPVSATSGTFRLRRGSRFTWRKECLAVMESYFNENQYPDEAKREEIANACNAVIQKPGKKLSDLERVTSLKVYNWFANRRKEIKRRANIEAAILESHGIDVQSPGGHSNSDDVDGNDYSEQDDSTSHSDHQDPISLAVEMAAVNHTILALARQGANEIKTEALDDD
B3: Histone-lysine N-methyltransferase SMYD1 (Homo sapiens), Q8NB12 (parent)
chain: MTIGRMENVEVFTAEGKGRGLKATKEFWAADIIFAERAYSAVVFDSLVNFVCHTCFKRQEKLHRCGQCKFAHYCDRTCQKDAWLNHKNECSAIKRYGKVPNENIRLAARIMWRVEREGTGLTEGCLVSVDDLQNHVEHFGEEEQKDLRVDVDTFLQYWPPQSQQFSMQYISHIFGVINCNGFTLSDQRGLQAVGVGIFPNLGLVNHDCWPNCTVIFNNGNHEAVKSMFHTQMRIELRALGKISEGEELTVSYIDFLNVSEERKRQLKKQYYFDCTCEHCQKKLKDDLFLGVKDNPKPSQEVVKEMIQFSKDTLEKIDKARSEGLYHEVVKLCRECLEKQEPVFADTNIYMLRMLSIVSEVLSYLQAFEEASFYARRMVDGYMKLYHPNNAQLGMAVMRAGLTNWHAGNIEVGHGMICKAYAILLVTHGPSHPITKDLEAMRVQTEMELRMFRQNEFMYYKMREAALNNQPMQVMAEPSNEPSPALFHKKQ
partner: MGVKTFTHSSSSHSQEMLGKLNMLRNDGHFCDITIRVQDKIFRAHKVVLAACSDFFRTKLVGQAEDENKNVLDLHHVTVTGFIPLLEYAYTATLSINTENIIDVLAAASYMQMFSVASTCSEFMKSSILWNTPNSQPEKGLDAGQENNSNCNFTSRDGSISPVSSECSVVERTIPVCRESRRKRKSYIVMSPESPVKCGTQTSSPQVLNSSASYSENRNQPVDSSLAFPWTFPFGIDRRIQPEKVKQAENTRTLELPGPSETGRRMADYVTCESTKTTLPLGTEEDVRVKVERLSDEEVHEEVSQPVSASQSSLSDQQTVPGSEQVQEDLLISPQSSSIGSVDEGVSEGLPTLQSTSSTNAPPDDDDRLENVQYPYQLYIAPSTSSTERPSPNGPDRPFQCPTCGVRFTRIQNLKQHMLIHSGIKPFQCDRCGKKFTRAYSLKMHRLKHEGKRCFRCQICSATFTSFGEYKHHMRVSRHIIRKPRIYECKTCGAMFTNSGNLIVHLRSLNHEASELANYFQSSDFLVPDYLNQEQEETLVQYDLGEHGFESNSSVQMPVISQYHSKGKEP

Variants of: B1
Settings: with bag3_human BAG3, O95817
bag3_human BAG3, O95817, sequence (O95817 whole entry): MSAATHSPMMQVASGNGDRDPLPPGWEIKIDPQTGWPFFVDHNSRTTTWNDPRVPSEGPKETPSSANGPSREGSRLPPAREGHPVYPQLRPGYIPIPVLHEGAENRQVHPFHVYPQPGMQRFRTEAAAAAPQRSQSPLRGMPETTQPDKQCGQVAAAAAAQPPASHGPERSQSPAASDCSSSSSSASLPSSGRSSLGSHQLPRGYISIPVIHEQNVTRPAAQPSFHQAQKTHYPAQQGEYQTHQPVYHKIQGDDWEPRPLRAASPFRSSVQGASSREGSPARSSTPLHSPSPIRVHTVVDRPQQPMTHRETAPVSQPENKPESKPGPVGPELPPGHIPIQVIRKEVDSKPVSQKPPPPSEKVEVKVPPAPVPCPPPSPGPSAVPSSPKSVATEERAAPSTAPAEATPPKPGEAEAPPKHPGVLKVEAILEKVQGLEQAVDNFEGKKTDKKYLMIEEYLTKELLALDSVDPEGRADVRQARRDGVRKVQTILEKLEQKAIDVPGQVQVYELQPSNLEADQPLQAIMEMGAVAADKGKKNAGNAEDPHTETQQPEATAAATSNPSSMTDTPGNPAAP

Variant	effect of a mutation on the interaction
I92V	with no effect
C137Y	with no effect

Variants of: B1
Settings: with reep6_human REEP6, Q96HR9
reep6_human REEP6, Q96HR9, sequence (Q96HR9 whole entry): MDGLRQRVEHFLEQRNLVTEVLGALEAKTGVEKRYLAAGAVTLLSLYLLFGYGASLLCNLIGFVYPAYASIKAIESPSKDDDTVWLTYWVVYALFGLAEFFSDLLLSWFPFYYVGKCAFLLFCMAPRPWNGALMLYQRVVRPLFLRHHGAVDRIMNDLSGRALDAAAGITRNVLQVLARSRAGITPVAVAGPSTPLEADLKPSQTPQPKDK

Variant	effect of a mutation on the interaction
C137Y	disrupting interaction strength

Variants of: B1
Settings: with stam2_human STAM2, O75886

Variant	effect of a mutation on the interaction
C137Y	with no effect

Variants of: B1
Settings: with hgs_human HGS

Variant	effect of a mutation on the interaction
C137Y	with no effect

Variants of: B2
Settings: with hmbx1_human HMBOX1, Q6NT76

Variant	effect of a mutation on the interaction
MSDRKAVIKNADMSEDMQQDAVDCATQAMDKYNIEKDIAAYIKKEFDKKYNPTWHCIVGRNFGSYVTHETKHFIYFYLGQVAILLFKSG [E30D]	with no effect

Variants of: B3
Settings: with zbt44_human ZBTB44, Q8NCP5

Variant	effect of a mutation on the interaction
MTIGRMENVEVFTAEGKGRGLKATKEFWAADIIFAERAYSAVVFDSLVNFVCHTCFKRQEKLHRCGQCKFAHYCDRTCQKDAWLNHKNECSAIKRYGKVPNENIRLAARIMWRVEREGTGLTEGCLVSVDDLQNHVEHFGEEEQKDLRVDVDTFLQYWPPQSQPFSMQYISHIFGVINCNGFTLSDQRGLQAVGVGIFPNLGLVNHDCWPNCTVIFNNGNHEAVKSMFHTQMRIELRALGKISEGEELTVSYIDFLNVSEERKRQLKKQYYFDCTCEHCQKKLKDDLFLGVKDNPKPSQEVVKEMIQFSKDTLEKIDKARSEGLYHEVVKLCRECLEKQEPVFADTNIYMLRMLSIVSEVLSYLQAFEEASFYARRMVDGYMKLYHPNNAQLGMAVMRAGLTNWHAGNIEVGHGMICKAYAILLVTHGPSHPITKDLEAMRVQTEMELRMFRQNEFMYYKMREAALNNQPMQVMAEPSNEPSPALFHKKQ [Q164P]	with no effect
